The chains are these.
B2: MIOS (subunit of the recombinant GATOR2 complex) (natural protein, human)
chain: MSGTKPDILWAPHHVDRFVVCDSELSLYHVESTVNSELKAGSLRLSEDSAATLLSINSDTPYMKCVAWYLNYDPECLLAVGQANGRVVLTSLGQDHNSKFKDLIGKEFVPKHARQCNTLAWNPLDSNWLAAGLDKHRADFSVLIWDICSKYTPDIVPMEKVKLSAGETETTLLVTKPLYELGQNDACLSLCWLPRDQKLLLAGMHRNLAIFDLRNTSQKMFVNTKAVQGVTVDPYFHDRVASFYEGQVAIWDLRKFEKPVLTLTEQPKPLTKVAWCPTRTGLLATLTRDSNIIRLYDMQHTPTPIGDETEPTIIERSVQPCDNYIASFAWHPTSQNRMIVVTPNRTMSDFTVFERISLAWSPITSLMWACGRHLYECTEEENDNSLEKDIATKMRLRALSRYGLDTEQVWRNHILAGNEDPQLKSLWYTLHFMKQYTEDMDQKSPGNKGSLVYAGIKSIVKSSLGMVESSRHNWSGLDKQSDIQNLNEERILALQLCGWIKKGTDVDVGPFLNSLVQEGEWERAAAVALFNLDIRRAIQILNEGASSEKGDLNLNVVAMALSGYTDEKNSLWREMCSTLRLQLNNPYLCVMFAFLTSETGSYDGVLYENKVAVRDRVAFACKFLSDTQLNRYIEKLTNEMKEAGNLEGILLTGLTKDGVDLMESYVDRTGDVQTASYCMLQGSPLDVLKDERVQYWIENYRNLLDAWRFWHKRAEFDIHRSKLDPSSKPLAQVFVSCNFCGKSISYSCSAVPHQGRGFSQYGVSGSPTKSKVTSCPGCRKPLPRCALCLINMGTPVSSCPGGTKSDEKVDLSKDKKLAQFNNWFTWCHNCRHGGHAGHMLSWFRDHAECPVSACTCKCMQLDTTGNLVPAETVQP
notes: MIOS, subunit of human GATOR2; codon-optimized DNA in pCAG; The MIOS chain of m1, for the pairs of subunits that touch in the structure

Series [1] deals with B2. Kind of series: cryo-EM structure; purified GATOR2 at 0.45 mg/ml with a threefold molar excess of CASTOR1^apo, 45 min on ice, no arginine; Titan Krios. Conditions: both partners purified.
Series [2] concerns the molecule itself. The series is described as above.
Series [3] deals with T1, WDR59 (subunit of the recombinant GATOR2 complex) (human, UniProt Q6PJI9 1-974).
T1 construct: WDR59, subunit of human GATOR2; codon-optimized DNA in pCAG; The WDR59 chain of m1
T1 sequence: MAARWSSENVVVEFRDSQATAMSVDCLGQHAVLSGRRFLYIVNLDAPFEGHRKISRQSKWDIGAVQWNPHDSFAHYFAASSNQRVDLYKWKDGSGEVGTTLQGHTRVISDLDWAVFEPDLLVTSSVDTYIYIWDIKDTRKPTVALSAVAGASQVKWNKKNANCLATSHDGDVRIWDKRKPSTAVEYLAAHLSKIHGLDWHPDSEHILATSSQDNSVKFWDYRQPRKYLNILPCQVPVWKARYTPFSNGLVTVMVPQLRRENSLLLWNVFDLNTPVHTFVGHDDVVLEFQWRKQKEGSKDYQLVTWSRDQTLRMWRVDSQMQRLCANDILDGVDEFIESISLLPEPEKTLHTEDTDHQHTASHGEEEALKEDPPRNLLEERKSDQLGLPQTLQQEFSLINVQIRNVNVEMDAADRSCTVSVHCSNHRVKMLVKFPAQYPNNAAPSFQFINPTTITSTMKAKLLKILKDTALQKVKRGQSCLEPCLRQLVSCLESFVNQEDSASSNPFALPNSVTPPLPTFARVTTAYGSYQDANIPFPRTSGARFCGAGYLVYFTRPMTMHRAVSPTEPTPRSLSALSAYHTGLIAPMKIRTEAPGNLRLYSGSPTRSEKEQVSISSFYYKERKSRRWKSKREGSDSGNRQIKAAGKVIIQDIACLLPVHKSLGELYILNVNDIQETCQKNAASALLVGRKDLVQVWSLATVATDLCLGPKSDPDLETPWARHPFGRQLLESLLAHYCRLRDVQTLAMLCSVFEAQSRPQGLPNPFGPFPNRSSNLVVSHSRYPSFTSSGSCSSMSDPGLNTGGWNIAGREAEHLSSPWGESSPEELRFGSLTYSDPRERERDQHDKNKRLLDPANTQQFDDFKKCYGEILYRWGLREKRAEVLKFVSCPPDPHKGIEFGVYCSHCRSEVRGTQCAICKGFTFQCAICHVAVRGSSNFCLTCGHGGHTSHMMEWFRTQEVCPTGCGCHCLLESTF
The description is as above. Conditions: both partners purified.

For series [4], the target named is T2, WDR24 (subunit of the recombinant GATOR2 complex) (human, UniProt Q96S15 1-790).
T2 construct: WDR24, subunit of human GATOR2; codon-optimized DNA in pCAG; The WDR24 chain of m1
T2 sequence: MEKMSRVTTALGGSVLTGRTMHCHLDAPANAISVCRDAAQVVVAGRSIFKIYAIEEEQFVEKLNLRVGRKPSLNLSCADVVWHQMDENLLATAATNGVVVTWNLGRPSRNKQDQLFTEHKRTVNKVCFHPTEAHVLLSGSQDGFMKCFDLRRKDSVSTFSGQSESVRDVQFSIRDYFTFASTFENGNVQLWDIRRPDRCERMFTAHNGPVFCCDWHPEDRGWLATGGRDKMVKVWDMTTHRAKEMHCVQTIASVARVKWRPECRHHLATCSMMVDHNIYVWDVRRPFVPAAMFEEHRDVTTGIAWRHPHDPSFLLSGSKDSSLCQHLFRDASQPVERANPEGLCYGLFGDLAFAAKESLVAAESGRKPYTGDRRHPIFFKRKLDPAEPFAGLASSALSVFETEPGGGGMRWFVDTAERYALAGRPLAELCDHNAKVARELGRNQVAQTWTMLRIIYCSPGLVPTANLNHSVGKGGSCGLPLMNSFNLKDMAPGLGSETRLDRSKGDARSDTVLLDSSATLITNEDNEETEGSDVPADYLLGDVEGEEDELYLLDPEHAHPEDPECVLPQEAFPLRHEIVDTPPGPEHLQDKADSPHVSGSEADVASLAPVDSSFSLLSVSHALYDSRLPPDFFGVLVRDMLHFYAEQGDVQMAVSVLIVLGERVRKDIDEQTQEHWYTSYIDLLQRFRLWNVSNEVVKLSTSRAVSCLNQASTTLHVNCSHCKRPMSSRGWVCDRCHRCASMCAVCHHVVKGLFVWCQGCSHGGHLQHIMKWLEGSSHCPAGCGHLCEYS
Kind of series: cryo-EM structure; purified GATOR2 at 0.45 mg/ml with threefold molar excess of CASTOR1^apo, twofold of SESN2^apo and threefold of GATOR1, 45 min on ice; Talos Arctica, 7.77 Å map. The conditions noted are these: both partners purified.

Broadly, the stoichiometry N is a count of units in the complex or per binding partner.

B1: CASTOR1(S111A/D304A), apo-locked mutant (natural protein)
chain: MELHILEHRVRVLSVARPGLWLYTHPLIKLLFLPRRSRCKFFSLTETPEDYTLMVDEEGFKELPPSEFLQVAEATWLVLNVSSHSGAAVQAAGVTKIARSVIAPLAEHHVAVLMLSTYQTDFILVREQDLSVVIHTLAQEFDIYREVGGEPVPVTRDDSSNGFPRTQHGPSPTVHPIQSPQNRFCVLTLDPETLPAIATTLIDVLFYSHSTPKEAASSSPEPSSITFFAFSLIEGYISIVMDAETQKKFPSDLLLTSSSGELWRMVRIGGQPLGFDECGIVAQIAGPLAAADISAYYISTFNFAHALVPEDGIGSVIEVLQRRQEGLAS
notes: CASTOR1, arginine sensor; codon-optimized DNA in pET-28a+; Homodimer in the structure; also called CASTOR1^apo; 6×His–CASTOR1^apo; source: E. coli BL21(DE3), purified (Ni-NTA, Superdex 200 gel filtration)
With B1, in series [1], the binding result was “binds”. Also, the “stoichiometry N” value in series [2] is 2.
B2: the binding result in series [3] and in series [2] was “binds” in each case.

B3: SESN2(E451Q/R390A/W444E), apo-locked mutant (natural protein, UniProt P58004 1-480, looked up)
chain: MIVADSECRAELKDYLRFAPGGVGDSGPGEEQRESRARRGPRGPSAFIPVEEVLREGAESLEQHLGLEALMSSGRVDNLAVVMGLHPDYFTSFWRLHYLLLHTDGPLASSWRHYIAIMAAARHQCSYLVGSHMAEFLQTGGDPEWLLGLHRAPEKLRKLSEINKLLAHRPWLITKEHIQALLKTGEHTWSLAELIQALVLLTHCHSLSSFVFGCGILPEGDADGSPAPQAPTPPSEQSSPPSRDPLNNSGGFESARDVEALMERMQQLQESLLRDEGTSQEEMESRFELEKSESLLVTPSADILEPSPHPDMLCFVEDPTFGYEDFTRRGAQAPPTFRAQDYTWEDHGYSLIQRLYPEGGQLLDEKFQAAYSLTYNTIAMHSGVDTSVLARAIWNYIHCVFGIRYDDYDYGEVNQLLERNLKVYIKTVACYPEKTTRRMYNLFERHFRHSQKVHVNLLLLEARMQAALLYALRAITRYMT
notes: sestrin2 (SESN2), leucine sensor; codon-optimized DNA in pET-28a+; also called SESN2^apo; 6×His–SESN2^apo; source: E. coli BL21(DE3), purified (Ni-NTA, SP cation-exchange flowthrough, Superdex 200 gel filtration)
On to B3, for which the binding result in series [4] is recorded as “binds”.

For the origin of these results see PMC12477443, “Structural basis for mTORC1 regulation by the CASTOR1–GATOR2 complex” (Nature Structural & Molecular Biology, 2025).
